# T1: human OX40 on PG-Jurkat-hOX40-NF-κB cells (human, UniProt P43489 29-277)
# T1 construct: whole, on cells; Jurkat cells overexpressing human OX40 that also carry the pGL6-NFκB-luc reporter; also called TNFRSF4; ACT35
# T1 sequence (looked up): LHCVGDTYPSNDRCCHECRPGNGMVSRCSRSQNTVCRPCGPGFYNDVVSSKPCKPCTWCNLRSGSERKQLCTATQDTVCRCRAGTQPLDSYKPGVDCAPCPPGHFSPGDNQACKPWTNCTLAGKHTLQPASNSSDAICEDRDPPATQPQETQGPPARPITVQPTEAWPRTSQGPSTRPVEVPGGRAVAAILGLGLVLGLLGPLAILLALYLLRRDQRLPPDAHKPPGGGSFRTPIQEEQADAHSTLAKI
# B1: antibody M-KF (antibody, human IgG1, kappa, V domains shown)
# VH: QVQLVESGGGVVQPGESLRLSCAASGFTFSSYGMHWVRQAPGKGLEWVAVIWEDGSNQYYADSVKGRFTISRDNSKNTLYLQMNSLRAEDTAVYYCAKDNQDTSPDVGIDYWGQGTLVTVSS
# VL: DIQMTQSPSSLSASVGDRVTITCRASQNISPFLNWYQQKPGKAPKLLIYAAVGLQSGVPSRFSGSGSGTDFTLTISSLQPEDFATYYCQQYTDYPLTFGGGTKVEIKR
# notes: also called anti-OX40 antibody
# What was measured:
# [1] = target: T1, human OX40 on PG-Jurkat-hOX40-NF-κB …; test: flow cytometry competition against OX40L-mFc on PG-Jurkat-OX40-NF-κB cells; reference is antibody KHK4083
# Procedure: PG-Jurkat-OX40-NF-κB cells were resuspended in 1×PBS to achieve a density of 1×10⁷ cells/mL. […] PG-Jurkat-OX40-NF-κB cells were plated in sample wells, control wells, and blank wells at 50 μL/well, and the cell count was 5×10⁵ cells/well at this point. Antibody diluents at different concentrations were added to sample wells at 50 μL/well, and the mixture was mixed well. 50 μL of 1×PBS was added to control wells and blank wells. The 96-well V-bottom plate was incubated in a refrigerator at 4° C. for 5 min. […] After the incubation was complete, the 96-well V-bottom plate was taken out. The diluted ligand solution was added to sample wells and control wells at 50 μL/well as soon as possible, and the mixture was mixed well by pipetting. […] The 96-well V-bottom plate was incubated in a refrigerator at 4° C. for 50 min. The plate was washed with 1×PBS, and the supernatant was removed for further incubation.
# Anti-mFc APC (Bioss, Cat. No.: BJ01138707) was diluted with 1×PBS at a ratio of 1:800, and 100 μL of the diluted anti-mFc APC was added to each well except for blank wells to resuspend the cells. The plate was incubated in the dark in a refrigerator at 4° C. for 30 min. After the incubation, the cells were washed with 1×PBS and finally resuspended in 1×PBS at 200 μL/well for flow cytometry analysis.
# [2] = target: T1, human OX40 on PG-Jurkat-hOX40-NF-κB …; test: cell-based or functional assay
binder,measurement,setting,value
B1,fold lower IC50 than antibody KHK4083,[1],2.8 times
same,fold lower IC50 than antibody KHK4083 in blocking OX40L-mFc activation of OX40 signals (NF-κB luciferase reporter),[2],4.8 times

# — US20260274976A1 (BIO THERA SOLUTIONS, published 2026)
